# Results from article PMC9482650, “Quantitative fragmentomics allow affinity mapping of interactomes” (Nature Communications, 2022).
# B1: MUC3A, MUC3B, Q02505;Q9H195 (peptide)
# chain: KRPEMTSSSV
# B2: NF2, P35240;P35240-1 (peptide)
# chain: KSRVAFFEEL
# B3: CNTNAP2, Q9UHC6 (peptide)
# chain: IDESKKEWLI
# B4: MYPN, Q86TC9 (peptide)
# chain: SRSVVESDEL
# Experiments:
# Assay in all cases: holdup assay
# Parameters in all cases: key: below the threshold = too weak to quantify, mostly under pKd 3.1 to 4
# Details in all cases: plain residues with an end cap or a label only (N-terminal biotin on a linker: ado-ado)
# HTRA2, O43464 = target: HTRA2, O43464
# DVL3, Q92997 = target: T1, DVL3, Q92997
# T1 sequence (Q92997 244-331, limits assumed, looked up): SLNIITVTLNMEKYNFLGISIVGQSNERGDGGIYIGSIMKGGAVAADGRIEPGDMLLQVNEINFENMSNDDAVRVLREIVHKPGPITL
# LIN7A, O14910 = target: T2, LIN7A, O14910
# T2 sequence (O14910 103-200, limits assumed, looked up): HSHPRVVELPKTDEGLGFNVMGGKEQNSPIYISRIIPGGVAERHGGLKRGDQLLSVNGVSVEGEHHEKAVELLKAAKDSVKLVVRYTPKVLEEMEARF
# DLG3_2, Q92796 = target: T3, DLG3_2, Q92796
# T3 sequence (Q92796 221-321, limits assumed, looked up): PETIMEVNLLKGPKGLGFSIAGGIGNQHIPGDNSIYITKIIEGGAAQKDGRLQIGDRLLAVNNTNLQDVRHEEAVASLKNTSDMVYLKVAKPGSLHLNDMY
# LIN7B, Q9HAP6 = target: T4, LIN7B, Q9HAP6
# T4 sequence (Q9HAP6 88-185, limits assumed, looked up): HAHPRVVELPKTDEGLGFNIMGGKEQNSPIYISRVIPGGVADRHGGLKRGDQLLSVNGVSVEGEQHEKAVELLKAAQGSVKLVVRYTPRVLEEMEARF
# GORASP2, Q9H8Y8 = target: GORASP2, Q9H8Y8
# HTRA1, Q92743 = target: HTRA1, Q92743
# LNX1_3, Q8TBB1 = target: LNX1_3, Q8TBB1
# NHERF4_1, Q86UT5-2 = target: NHERF4_1, Q86UT5-2
# MPP6, Q9NZW5 = target: T5, MPP6, Q9NZW5
# T5 sequence (Q9NZW5 125-219, limits assumed, looked up): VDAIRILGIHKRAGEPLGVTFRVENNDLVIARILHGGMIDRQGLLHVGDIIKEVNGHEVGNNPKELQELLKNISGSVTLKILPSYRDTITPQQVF
# GRIP1_2, Q9Y3R0 = target: T6, GRIP1_2, Q9Y3R0
# T6 sequence (Q9Y3R0 145-248, limits assumed, looked up): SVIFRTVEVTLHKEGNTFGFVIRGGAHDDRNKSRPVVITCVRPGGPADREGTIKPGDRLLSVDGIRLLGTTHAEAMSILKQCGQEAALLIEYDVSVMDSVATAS
# SNTG1, Q9NSN8 = target: T7, SNTG1, Q9NSN8
# T7 sequence (Q9NSN8 52-150, limits assumed, looked up): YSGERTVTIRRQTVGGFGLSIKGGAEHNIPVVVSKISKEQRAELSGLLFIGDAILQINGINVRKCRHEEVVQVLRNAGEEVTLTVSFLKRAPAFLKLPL
# PDLIM1, O00151 = target: PDLIM1, O00151
# GRID2IP_1, A4D2P6 = target: GRID2IP_1, A4D2P6
# TJP1_3, Q07157 = target: TJP1_3, Q07157
# SCRIB_3, Q14160 = target: SCRIB_3, Q14160
# APBA2_1, Q99767 = target: T8, APBA2_1, Q99767
# T8 sequence (Q99767 563-664, limits assumed, looked up): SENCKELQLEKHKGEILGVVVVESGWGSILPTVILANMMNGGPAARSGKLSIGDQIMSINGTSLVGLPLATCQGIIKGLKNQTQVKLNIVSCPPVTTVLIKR
# IL16_4, Q14005 = target: IL16_4, Q14005
# PCLO, Q9Y6V0 = target: T9, PCLO, Q9Y6V0
# T9 sequence (Q9Y6V0 4491-4600, limits assumed, looked up): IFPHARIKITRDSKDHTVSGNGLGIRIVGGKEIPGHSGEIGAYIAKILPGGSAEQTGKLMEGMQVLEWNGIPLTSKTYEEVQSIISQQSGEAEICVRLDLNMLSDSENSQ
# FRMPD1, Q5SYB0 = target: T10, FRMPD1, Q5SYB0
# T10 sequence (Q5SYB0 52-145, limits assumed, looked up): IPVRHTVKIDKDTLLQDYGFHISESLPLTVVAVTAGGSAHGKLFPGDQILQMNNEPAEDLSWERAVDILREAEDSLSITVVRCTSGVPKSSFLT
# ARHGEF12, Q9NZN5-2 = target: ARHGEF12, Q9NZN5-2
# LAP2, Q96RT1 = target: LAP2, Q96RT1
# FRMPD2_2, Q68DX3 = target: FRMPD2_2, Q68DX3
# Inadl_8, Q8NI35 = target: Inadl_8, Q8NI35
# PDZRN3_1, Q9UPQ7 = target: T11, PDZRN3_1, Q9UPQ7
# T11 sequence (Q9UPQ7 244-349, limits assumed, looked up): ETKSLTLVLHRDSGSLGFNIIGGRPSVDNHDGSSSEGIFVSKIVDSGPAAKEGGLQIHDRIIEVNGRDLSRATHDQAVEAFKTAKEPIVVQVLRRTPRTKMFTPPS
# DLG3_1, Q92796 = target: T12, DLG3_1, Q92796
# T12 sequence (Q92796 125-227, limits assumed, looked up): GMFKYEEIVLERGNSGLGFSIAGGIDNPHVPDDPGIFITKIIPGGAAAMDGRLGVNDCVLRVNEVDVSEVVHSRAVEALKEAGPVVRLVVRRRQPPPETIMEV
# Chain of LAP2, Q96RT1 (Q96RT1 other isoform, or with tags, fused parts or gaps): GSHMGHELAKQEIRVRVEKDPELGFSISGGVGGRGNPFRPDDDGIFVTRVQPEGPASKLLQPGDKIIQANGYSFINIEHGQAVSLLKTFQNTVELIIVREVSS
# Chain of LNX1_3, Q8TBB1 (Q8TBB1 500-596): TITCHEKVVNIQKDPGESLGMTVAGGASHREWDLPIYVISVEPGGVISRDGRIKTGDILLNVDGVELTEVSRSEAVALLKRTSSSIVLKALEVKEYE
# Chain of Inadl_8, Q8NI35 (Q8NI35 1425-1530): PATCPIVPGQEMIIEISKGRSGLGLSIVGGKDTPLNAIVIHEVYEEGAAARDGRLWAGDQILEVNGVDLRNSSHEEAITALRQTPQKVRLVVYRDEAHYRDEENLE
# Chain of IL16_4, Q14005 (Q14005 1229-1329): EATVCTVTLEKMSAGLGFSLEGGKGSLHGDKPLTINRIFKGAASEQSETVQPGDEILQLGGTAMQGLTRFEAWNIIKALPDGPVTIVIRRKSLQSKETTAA
# Chain of TJP1_3, Q07157 (Q07157 416-512): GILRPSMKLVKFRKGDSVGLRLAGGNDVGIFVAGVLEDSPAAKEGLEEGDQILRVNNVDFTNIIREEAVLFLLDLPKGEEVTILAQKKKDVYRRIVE
# Chain of HTRA1, Q92743 (Q92743 360-477): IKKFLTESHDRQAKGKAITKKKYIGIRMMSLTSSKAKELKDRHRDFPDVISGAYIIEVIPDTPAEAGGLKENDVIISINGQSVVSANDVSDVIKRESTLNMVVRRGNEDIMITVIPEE
# Chain of ARHGEF12, Q9NZN5-2 (Q9NZN5 other isoform, or with tags, fused parts or gaps): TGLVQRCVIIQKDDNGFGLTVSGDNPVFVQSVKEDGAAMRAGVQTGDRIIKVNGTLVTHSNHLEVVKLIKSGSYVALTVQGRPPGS
# Chain of GRID2IP_1, A4D2P6 (A4D2P6 1-87): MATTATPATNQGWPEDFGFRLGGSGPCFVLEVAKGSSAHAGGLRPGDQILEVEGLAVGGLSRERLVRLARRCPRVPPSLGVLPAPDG
# Chain of PDLIM1, O00151 (O00151 1-87): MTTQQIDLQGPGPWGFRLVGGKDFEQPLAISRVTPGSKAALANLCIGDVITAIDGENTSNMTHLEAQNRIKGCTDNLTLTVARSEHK
# Chain of SCRIB_3, Q14160 (Q14160 999-1103): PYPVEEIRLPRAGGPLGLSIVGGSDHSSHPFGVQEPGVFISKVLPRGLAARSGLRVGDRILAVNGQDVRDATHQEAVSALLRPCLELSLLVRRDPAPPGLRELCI
# Chain of NHERF4_1, Q86UT5-2 (Q86UT5 other isoform, or with tags, fused parts or gaps): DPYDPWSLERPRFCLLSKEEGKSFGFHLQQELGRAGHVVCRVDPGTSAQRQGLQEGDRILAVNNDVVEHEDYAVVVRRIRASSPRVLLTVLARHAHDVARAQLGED
# Chain of FRMPD2_2, Q68DX3 (Q68DX3 944-1038): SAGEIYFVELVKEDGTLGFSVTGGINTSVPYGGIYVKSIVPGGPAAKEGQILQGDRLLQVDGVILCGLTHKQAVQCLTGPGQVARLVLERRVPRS
# Chain of HTRA2, O43464 (O43464 355-458): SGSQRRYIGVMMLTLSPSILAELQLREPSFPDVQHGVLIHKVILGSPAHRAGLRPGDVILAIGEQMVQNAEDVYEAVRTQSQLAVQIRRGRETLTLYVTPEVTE
binder,measurement,setting,value
B1,pKd,"HTRA2, O43464",below the threshold
same,pKd,"DVL3, Q92997",below the threshold
same,pKd,"LIN7A, O14910",below the threshold
same,pKd,"DLG3_2, Q92796",4.26
same,pKd,"LIN7B, Q9HAP6",3.68
same,pKd,"GORASP2, Q9H8Y8",below the threshold
same,pKd,"HTRA1, Q92743",below the threshold
same,pKd,"LNX1_3, Q8TBB1",below the threshold
same,pKd,"NHERF4_1, Q86UT5-2",3.58
same,pKd,"MPP6, Q9NZW5",below the threshold
same,pKd,"GRIP1_2, Q9Y3R0",below the threshold
same,pKd,"SNTG1, Q9NSN8",4.08
same,pKd,"PDLIM1, O00151",below the threshold
same,pKd,"GRID2IP_1, A4D2P6",below the threshold
same,pKd,"TJP1_3, Q07157",below the threshold
same,pKd,"SCRIB_3, Q14160",1.79
same,pKd,"APBA2_1, Q99767",below the threshold
same,pKd,"IL16_4, Q14005",1.87
same,pKd,"PCLO, Q9Y6V0",below the threshold
B2,pKd,"DLG3_2, Q92796",below the threshold
same,pKd,"LIN7B, Q9HAP6",below the threshold
same,pKd,"FRMPD1, Q5SYB0",below the threshold
same,pKd,"HTRA1, Q92743",4.51
same,pKd,"NHERF4_1, Q86UT5-2",4.31
same,pKd,"MPP6, Q9NZW5",below the threshold
same,pKd,"GRIP1_2, Q9Y3R0",below the threshold
same,pKd,"SNTG1, Q9NSN8",below the threshold
same,pKd,"ARHGEF12, Q9NZN5-2",3.91
same,pKd,"GRID2IP_1, A4D2P6",below the threshold
same,pKd,"LAP2, Q96RT1",below the threshold
same,pKd,"TJP1_3, Q07157",below the threshold
same,pKd,"PCLO, Q9Y6V0",below the threshold
same,pKd,"FRMPD2_2, Q68DX3",below the threshold
same,pKd,"Inadl_8, Q8NI35",below the threshold
B3,pKd,"HTRA2, O43464",3.49
same,pKd,"DVL3, Q92997",3.85
same,pKd,"LIN7A, O14910",3.72
same,pKd,"DLG3_2, Q92796",3.91
same,pKd,"PDZRN3_1, Q9UPQ7",below the threshold
same,pKd,"LIN7B, Q9HAP6",3.75
same,pKd,"GORASP2, Q9H8Y8",3.94
same,pKd,"FRMPD1, Q5SYB0",below the threshold
same,pKd,"HTRA1, Q92743",5.31
same,pKd,"LNX1_3, Q8TBB1",below the threshold
same,pKd,"NHERF4_1, Q86UT5-2",below the threshold
same,pKd,"MPP6, Q9NZW5",4.54
same,pKd,"GRIP1_2, Q9Y3R0",below the threshold
same,pKd,"SNTG1, Q9NSN8",below the threshold
same,pKd,"ARHGEF12, Q9NZN5-2",below the threshold
same,pKd,"PDLIM1, O00151",below the threshold
same,pKd,"GRID2IP_1, A4D2P6",below the threshold
same,pKd,"LAP2, Q96RT1",below the threshold
same,pKd,"TJP1_3, Q07157",below the threshold
same,pKd,"SCRIB_3, Q14160",3.71
same,pKd,"DLG3_1, Q92796",below the threshold
same,pKd,"APBA2_1, Q99767",below the threshold
same,pKd,"IL16_4, Q14005",3.79
same,pKd,"PCLO, Q9Y6V0",below the threshold
same,pKd,"FRMPD2_2, Q68DX3",below the threshold
same,pKd,"Inadl_8, Q8NI35",below the threshold
B4,pKd,"HTRA2, O43464",below the threshold
same,pKd,"DVL3, Q92997",below the threshold
same,pKd,"LIN7A, O14910",below the threshold
same,pKd,"DLG3_2, Q92796",below the threshold
same,pKd,"PDZRN3_1, Q9UPQ7",below the threshold
same,pKd,"LIN7B, Q9HAP6",below the threshold
same,pKd,"GORASP2, Q9H8Y8",below the threshold
same,pKd,"FRMPD1, Q5SYB0",below the threshold
same,pKd,"HTRA1, Q92743",3.69
same,pKd,"LNX1_3, Q8TBB1",below the threshold
same,pKd,"NHERF4_1, Q86UT5-2",4.29
same,pKd,"MPP6, Q9NZW5",below the threshold
same,pKd,"GRIP1_2, Q9Y3R0",below the threshold
same,pKd,"SNTG1, Q9NSN8",below the threshold
same,pKd,"ARHGEF12, Q9NZN5-2",3.58
same,pKd,"PDLIM1, O00151",5.11
same,pKd,"GRID2IP_1, A4D2P6",below the threshold
same,pKd,"LAP2, Q96RT1",below the threshold
same,pKd,"TJP1_3, Q07157",below the threshold
same,pKd,"SCRIB_3, Q14160",3.51
same,pKd,"DLG3_1, Q92796",below the threshold
same,pKd,"APBA2_1, Q99767",below the threshold
same,pKd,"IL16_4, Q14005",below the threshold
same,pKd,"PCLO, Q9Y6V0",below the threshold
same,pKd,"FRMPD2_2, Q68DX3",below the threshold
same,pKd,"Inadl_8, Q8NI35",below the threshold
